From publication PMC3231237

Tests used:
Case16 [1] = test: SEC-MALS; sensor at 4 mg/mL, Ca2+-saturated (5 mM CaCl2 added, 1 h); Superdex 200, 50 mM Tris-HCl, 300 mM NaCl, pH 7.4, 1 mM CaCl2; monomer to dimer
Case16 [2] = test: SEC-MALS; sensor at 16 mg/mL, Ca2+-saturated (5 mM CaCl2 added, 1 h); Superdex 200, 50 mM Tris-HCl, 300 mM NaCl, pH 7.4, 1 mM CaCl2; monomer to dimer
Case12 [3] = test: SEC-MALS; sensor at 4 mg/mL, Ca2+-saturated (5 mM CaCl2 added, 1 h); Superdex 200, 50 mM Tris-HCl, 300 mM NaCl, pH 7.4, 1 mM CaCl2; monomer to dimer
Case12 [4] = test: SEC-MALS; sensor at 16 mg/mL, Ca2+-saturated (5 mM CaCl2 added, 1 h); Superdex 200, 50 mM Tris-HCl, 300 mM NaCl, pH 7.4, 1 mM CaCl2; monomer to dimer

For Case16, which percent dimer (Case16 [1]) is on record?
Its percent dimer is 2%.

And the percent dimer (Case16 [2])?
The percent dimer was 26%.

What about the stoichiometry N (Case16 [2]) of the same substance?
The stoichiometry N was 2.

How did the percent dimer (Case12 [3]) turn out when Case12 was run?
Its percent dimer is 3%.

What about the percent dimer (Case12 [4]) of the same substance?
The percent dimer was 22%.

And the stoichiometry N (Case12 [4])?
Its stoichiometry N is 2.
